Where two headings read alike, the source gives them in different places.
T1: human TIGIT-His protein (human, UniProt Q495A1 22-141)
T1 construct: Recombinant protein; also called human TIGIT-his tag; hTIGIT-His
T1 sequence (looked up): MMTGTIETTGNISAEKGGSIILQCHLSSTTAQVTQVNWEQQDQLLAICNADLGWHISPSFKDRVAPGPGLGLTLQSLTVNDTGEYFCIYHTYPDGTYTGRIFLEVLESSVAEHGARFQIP

T2: biotin-labeled human TIGIT protein (human, UniProt Q495A1 22-141, biotin-labeled (sites not given))
T2 construct: also called recombinant human TIGIT
T2 sequence (looked up): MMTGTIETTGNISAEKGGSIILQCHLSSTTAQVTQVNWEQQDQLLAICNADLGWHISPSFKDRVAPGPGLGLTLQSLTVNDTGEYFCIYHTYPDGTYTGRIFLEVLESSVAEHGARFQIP

T3: human TIGIT expressed on cells (human, UniProt Q495A1 22-244)
T3 sequence (looked up): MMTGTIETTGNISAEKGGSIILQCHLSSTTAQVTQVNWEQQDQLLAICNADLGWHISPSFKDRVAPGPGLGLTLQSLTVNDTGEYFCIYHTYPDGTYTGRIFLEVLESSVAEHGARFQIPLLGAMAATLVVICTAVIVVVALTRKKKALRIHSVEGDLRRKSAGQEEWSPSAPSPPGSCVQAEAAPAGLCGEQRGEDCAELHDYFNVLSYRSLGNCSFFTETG


Tests used:
human TIGIT-His protein [1] = target: T1, human TIGIT-His protein; assay: SPR (Biacore) affinity ranking, human TIGIT-His
human TIGIT-His protein [2] = target: T1, human TIGIT-His protein; assay: SPR (Biacore T200) full kinetics, antibody captured on Protein A chip, hTIGIT-His as analyte
Description: The binding of the humanized antibodies to recombinant TIGIT protein (human TIGIT-his tag) was tested by BIACORE™ using a capture method. Hu02 and Hu06 mAbs were captured using Protein A chip. A serial dilution of human TIGIT-his tag protein was injected over captured antibody for 2 mins at a flow rate of 30 µl/min. The antigen was allowed to dissociate for 1800 s. All the experiment were carried out on a Biacore T200.

[3] = target: T2, biotin-labeled human TIGIT protein; assay: ELISA blocking assay: CD155-hFc coated, biotin-labeled human TIGIT, antibody titrated
Description: To evaluate the blocking effects of Hu02 and Hu06 on recombinant human TIGIT to bind to its receptor CD155, an ELISA based receptor blocking assay was used.
Briefly, microtiter plates were coated with human CD155-hFc protein at 5 µg/ml in PBS, 100 µl/well at 4° C. overnight, then blocked with 150 µl/well of 1% BSA. 50 µl biotin-labeled human TIGIT protein and 3-fold dilutions of Hu02 and Hu06 antibodies starting from 10 µg/ml at 50 µl were added to each well and incubated for 1 hour at 37° C. The plates were washed with PBS/Tween and then incubated with Streptavidin-HRP for 10 mins at 37° C. After washing, the plates were developed with TMB substrate and analyzed by spectrophotometer at OD 450 nm.

human TIGIT-His protein [4] = target: T1, human TIGIT-His protein; assay: ELISA, plate coated with human TIGIT-His, anti-human IgG-HRP, OD 450nm; unit taken from the axis Log[Conc.]/ng/ml
Description: (§1) To evaluate the antigen binding activity, Hu02 and Hu06 were subjected to ELISA test. Briefly, microtiter plates were coated with human TIGIT-his protein at 0.5 µg/ml in PBS, 100 µl/well at 4° C. overnight, then blocked with 150 µl/well of 1% BSA. Three-fold dilutions of humanized antibodies starting from 3 µg/ml were added to each well and incubated for 1 hour at 37° C. The plates were washed with PBS/Tween and then incubated with Goat-anti-human IgG antibody conjugated with Horse Radish Peroxidase (HRP) for 0.5 hour at 37° C. After washing, the plates were developed with TMB substrate and analyzed by spectrophotometer at OD 450 nm.

[5] = target: T3, human TIGIT expressed on cells; assay: cell-based or functional assay
human TIGIT-His protein [6] = target: T1, human TIGIT-His protein; assay: ELISA, plate coated with human TIGIT-His, anti-human IgG-HRP, OD 450nm; unit taken from the axis Log[Conc.]/ng/ml; remark: listed apart in the source
Description: as §1, with “the humanized antibodies” for “Hu02 and Hu06”, “30 mins” for “0.5 hour”

[7] = target: T3, human TIGIT expressed on cells; assay: flow cytometry (FACS) on human TIGIT overexpressing mammalian cells
Description: (§2) To evaluate the antigen binding property, the humanized antibodies were analyzed for their binding to human TIGIT overexpressed mammalian cells by FACS. Briefly, human TIGIT cells were firstly incubated with 3-fold serious diluted humanized antibodies starting at 5 µg/ml at 4° C. for 40 mins.

[8] = target: T3, human TIGIT expressed on cells; assay: flow cytometry on human TIGIT overexpressing cells, Alexa Fluor 647 anti-human IgG; unit from the x axis
Description: as §2

[9] = target: T3, human TIGIT expressed on cells; assay: cell-based or functional assay; remark: listed apart in the source
human TIGIT-His protein [10] = target: T1, human TIGIT-His protein; assay: ELISA, plate coated with human TIGIT-His, anti-human IgG-HRP, OD 450nm; unit taken from the axis Log[Conc.]/ng/ml; remark: listed apart in the source
Description: To evaluate the antigen binding activity, LP010-02 (Hu02-human IgG1 Fc) and control antibody Tiragolumab (RG6058, Roche), which contains the same IgG1 Fc, were subjected to ELISA testing. Briefly, microtiter plates were coated with human TIGIT-his protein at 0.5 µg/ml in PBS, 100 µl/well at 4° C. overnight, then blocked with 150 µl/well of 1% BSA. Three-fold dilutions of humanized antibodies starting from 3 µg/ml were added to each well and incubated for 1 hour at 37° C. The plates were washed with PBS/Tween and then incubated with Goat-anti-human IgG antibody conjugated with Horse Radish Peroxidase (HRP) for 0.5 hour at 37° C. After washing, the plates were developed with the TMB substrate and analyzed by spectrophotometer at OD 450 nm.

| Kd (human TIGIT-His protein [1]) [nM] | koff (human TIGIT-His protein [1]) [s⁻¹] | kon (human TIGIT-His protein [1]) [M⁻¹ s⁻¹] | Kd (human TIGIT-His protein [2]) [nM] | koff (human TIGIT-His protein [2]) [s⁻¹] | kon (human TIGIT-His protein [2]) [M⁻¹ s⁻¹] | IC50 [3] [µg/mL] | EC50 (human TIGIT-His protein [4]) [µg/mL] | NFAT luciferase production, EC50 [5] [nM] | EC50 (human TIGIT-His protein [6]) [µg/mL] | EC50 [7] [µg/mL] | LogEC50 [8] | EC50, NFAT luciferase reporter (RLU), TIGIT-CD226-NFAT effector cells with Raji-CD155 target cells [9] [nM] | LogEC50, NFAT luciferase reporter (RLU), TIGIT-CD226-NFAT effector cells with Raji-CD155 target cells [9] | EC50 (human TIGIT-His protein [10]) [µg/mL] | Binder |
| --- | --- | --- | --- | --- | --- | --- | --- | --- | --- | --- | --- | --- | --- | --- | --- |
| 0.0136 | 0.000101 | 7.43e+06 | 0.0416 | 7.18e-05 | 1.72e+06 | 0.866 | 0.00934 | 1.67 | 0.0104 |  |  |  |  |  | 76D12B10-Hu06 (antibody, V domains shown, Humanized, VH.V1 + VK.V1) VH: EVQLQESGPGLVKPSETLSLTCAVSGYSISSGYDWHWIRQPPGKGLEWIGFIRDSGSTVYNPSLKGRVTISHDTSKNQFSLKLSSVTAADTAVYYCARGLFWYFDVWGQGTTVTVSS VL: DIQMTQSPSSLSASVGDRVTITCRTSENIFSYLAWYQQKPGKVPKLLIHNTKTLAEGVPSRFSGSGSGTDFTLTISSLQPEDVATYYCQHHYGNPLTFGQGTKLEIK |
|  |  |  |  |  |  | 0.531 |  |  |  | 0.0328 | 1.52 Log[Conc.]/ng/ml | 1.95 | 0.29 Log[Conc.]/nM | 0.00654 | LP010-02 (Hu02-human IgG1 Fc) (antibody, V domains shown) VH: EVQLQESGPGLVKPSETLSLTCAVSGYSISSGYDWHWIRQPPGKGLEWIGFIRDSGSTVYNPSLKGRITISHDTSKNQFSLKLSSVTAADTAVYYCARGLFWYFDVWGQGTTVTVSS VL: DIQMTQSPSSLSASVGDRVTITCRTSENIFSYLAWYQQKPGKVPKLLIYNTKTLAEGVPSRFSGSGSGTDFTLTISSLQPEDVATYYCQHHYGNPLTFGQGTKLEIK |
|  |  |  |  |  |  |  |  |  |  | 0.0368 | 1.57 Log[Conc.]/ng/ml | 2.95 | 0.47 Log[Conc.]/nM |  | Tiragolumab (RG6058, Roche) (antibody, V domains shown) VH: EVQLQQSGPGLVKPSQTLSLTCAISGDSVSSNSAAWNWIRQSPSRGLEWLGKTYYRFKWYSDYAVSVKGRITINPDTSKNQFSLQLNSVTPEDTAVFYCTRESTTYDLLAGPFDYWGQGTLVTVSS VL: not shown |
